Test results: article PMC11790920 (Nature Communications, 2025)

Target: T1, eukaryotic translation elongation factor 1A (eEF1A), native, full length (S. cerevisiae, UniProt P02994 1-458)
T1 sequence (looked up): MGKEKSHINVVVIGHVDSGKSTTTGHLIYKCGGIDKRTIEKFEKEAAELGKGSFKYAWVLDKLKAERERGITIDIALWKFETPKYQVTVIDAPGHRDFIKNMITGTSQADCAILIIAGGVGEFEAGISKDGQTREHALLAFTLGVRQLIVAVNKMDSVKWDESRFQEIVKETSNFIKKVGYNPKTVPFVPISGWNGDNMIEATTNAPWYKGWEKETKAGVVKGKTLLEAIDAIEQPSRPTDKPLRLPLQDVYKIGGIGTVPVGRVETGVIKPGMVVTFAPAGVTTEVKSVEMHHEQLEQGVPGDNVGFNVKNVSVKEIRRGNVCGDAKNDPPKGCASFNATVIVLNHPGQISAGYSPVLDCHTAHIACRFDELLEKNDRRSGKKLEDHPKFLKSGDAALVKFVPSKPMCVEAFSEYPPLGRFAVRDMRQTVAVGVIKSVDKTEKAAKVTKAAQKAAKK
Test: pull-down

B1: recombinant Ypl225w-3xFLAG (natural protein, S. cerevisiae, UniProt Q08971 1-146, looked up)
chain: MSTFNAETADNLEDIEKQFAVVAVEQAETYWKLLTSVPGSKLRLTKFDDEIYENFMERFPEYKDVERVKKFTEEELKTKEAKERWRKFFTIFEKKIEDYNFGTLLRTDASAEYGQFTTCFVVRLQFYAFEIARNKHGLNDWIVGQK
B1: binds.
